Measured values taken from US20220017630A1 (JIANGSU SIMCERE PHARMACEUTICAL, published 2022).
Each block holds one binder with its values, some of them ahead of it.

Legend:
[1] = target: T1, human TNFR2 (Novoprotein, Catalog No. C830) (human, UniProt P20333 23-257, limits assumed); assay: blocking ELISA, TNFα-biotin on coated human TNFR2; 002# OD / antibody OD x 100
T1 construct: construct not described; also called TNFR2 protein
T1 sequence (looked up): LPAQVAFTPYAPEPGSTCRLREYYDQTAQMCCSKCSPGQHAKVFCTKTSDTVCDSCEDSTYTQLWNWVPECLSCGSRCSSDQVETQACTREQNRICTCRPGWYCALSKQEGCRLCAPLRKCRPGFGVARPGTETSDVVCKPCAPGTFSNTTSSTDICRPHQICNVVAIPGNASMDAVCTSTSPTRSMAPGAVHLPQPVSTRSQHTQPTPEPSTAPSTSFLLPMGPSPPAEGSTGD
Protocol: A microplate was pre-coated with 100 μl/well of 1 μg/ml human TNFR2 (Novoprotein, Catalog No. C830). […] After washing the plate, a Streptavidin-HRP working solution (1:10000 dilution) was added at 100 μl/well, and incubated with shaking at room temperature for 40 min. The plate was washed again, the HRP substrate TMB was added for color development, the termination solution was added to terminate the reaction, and the microplate reader was used to read the absorption value.

[2] = target: T2, human TNFR2 on the cell surface (CHO-TNFR2 cells; human Treg cells) (human, UniProt P20333 23-461); assay: flow cytometry competition on CHO-TNFR2 cells: antibody first, then human TNFα-biotin, PE-streptavidin; MFI of bound TNFα-biotin [label on D00006), panel #133, table under the plot]
T2 construct: whole, on cells; The assay field of each row says which cells; also called TNFR2-CHO cell; TNFR2 on Treg cells
T2 sequence (looked up): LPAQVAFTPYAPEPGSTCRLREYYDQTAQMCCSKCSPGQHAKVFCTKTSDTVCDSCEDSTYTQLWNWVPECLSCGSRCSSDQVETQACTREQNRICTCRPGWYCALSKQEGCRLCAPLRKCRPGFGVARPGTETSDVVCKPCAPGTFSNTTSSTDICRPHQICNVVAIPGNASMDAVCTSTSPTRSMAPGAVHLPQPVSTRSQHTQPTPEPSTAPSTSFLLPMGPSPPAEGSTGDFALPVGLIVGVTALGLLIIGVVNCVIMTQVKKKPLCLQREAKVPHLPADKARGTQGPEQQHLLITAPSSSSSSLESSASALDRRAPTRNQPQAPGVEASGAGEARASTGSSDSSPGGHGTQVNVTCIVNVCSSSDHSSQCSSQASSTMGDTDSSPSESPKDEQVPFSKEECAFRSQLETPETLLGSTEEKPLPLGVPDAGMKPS
Protocol: (§1) CHO cells that stably overexpressed human TNFR2 were used for experiments. The cells were resuscitated and passaged until in good state, and the expression level of human TNFR2 on the cells was assessed by FACS. Compared to the isotype control, the assay could be carried out when the fold change of mean fluorescence intensity (MFI) was more than 100 times.
(§2) CHO-TNFR2 cells were digested, washed twice with DPBS and stained with Live/Dead (L/D) at room temperature for 20 min, and then seeded at 1×10⁵ cells/50 μl/well. […] The diluted antibodies were added 50 μl/well into wells pre-seeded with cells, and gently blown and mixed to make the final concentrations of the antibodies to 20, 6.67, 2.22, 0.74, 0.247, 0.08, 0.027 and 0 nM, respectively followed by incubation at 4° C. for 30 min. […] After washing twice with the staining buffer, 100 μl/well of PE-streptavidin was added and incubated at 4° C. for 30 min. After additional washing with the staining buffer twice, 150 μl resuspended cells was analyzed using an flow cytometry. Taking the logarithmic value of the antibody concentrations as abscissa and the corresponding MFI value as ordinate, the inhibition curve of the antibody was drawn, and the IC50 value was calculated by four parameters fitting.

[3] = target: T3, Human TNFR2 recombinant protein (Sino 10417-H08H) (human, UniProt P20333 23-257); assay: ELISA, coated antigen 0.5 ug/ml, antibody 12 ng/ml
T3 construct: also called hTNFR2 (His tag)
T3 sequence (looked up): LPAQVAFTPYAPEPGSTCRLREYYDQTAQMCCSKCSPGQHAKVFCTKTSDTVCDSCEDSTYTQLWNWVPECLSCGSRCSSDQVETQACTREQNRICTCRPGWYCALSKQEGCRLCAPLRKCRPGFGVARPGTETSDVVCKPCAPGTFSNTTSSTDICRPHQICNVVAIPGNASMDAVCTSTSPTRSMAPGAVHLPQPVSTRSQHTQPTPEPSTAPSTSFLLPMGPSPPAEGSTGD

[4] = target: T4, cynomolgus TNFR2 (Sino 90102-C08H) (cynomolgus, UniProt A0A2K5VET2 132-366); assay: ELISA, coated antigen 0.5 ug/ml, antibody 12 ng/ml
T4 construct: also called CynoTNFR2 (His tag)
T4 sequence: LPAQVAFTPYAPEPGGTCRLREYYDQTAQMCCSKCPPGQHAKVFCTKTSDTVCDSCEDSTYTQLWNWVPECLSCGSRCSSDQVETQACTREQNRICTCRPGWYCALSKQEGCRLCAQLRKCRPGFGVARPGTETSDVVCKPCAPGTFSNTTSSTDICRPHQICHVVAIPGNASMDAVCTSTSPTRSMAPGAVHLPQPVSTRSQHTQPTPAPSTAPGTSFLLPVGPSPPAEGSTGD

[5] = target: T2, human TNFR2 on the cell surface …; assay: flow cytometry competition on CHO-TNFR2 cells: antibody first, then human TNFα-biotin, PE-streptavidin; MFI of bound TNFα-biotin [panel #226, table under the plot]
Protocol: as §1, §2

[6] = target: T2, human TNFR2 on the cell surface …; assay: flow cytometry competition on CHO-TNFR2 cells: antibody first, then human TNFα-biotin, PE-streptavidin; MFI of bound TNFα-biotin [label on D00006), panel #088, table under the plot]
Protocol: as §1, §2

[7] = target: T2, human TNFR2 on the cell surface …; assay: flow cytometry competition on CHO-TNFR2 cells: antibody first, then human TNFα-biotin, PE-streptavidin; MFI of bound TNFα-biotin [panel #365, table under the plot]
Protocol: as §1, §2

[8] = target: T2, human TNFR2 on the cell surface …; assay: flow cytometry competition on CHO-TNFR2 cells: antibody first, then human TNFα-biotin, PE-streptavidin; MFI of bound TNFα-biotin [label on D00006), panel #224 (printed twice, bottom left and bottom right), table under the plot]
Protocol: as §1, §2

% to 002# OD (2 nM) [1]: 74.6%
% to 002# OD (20 nM) [1]: 110%
IC50 [2]: 0.04 µg/mL
B1: TNFR2 antibody #133 (antibody, V domains shown)
VH: EVQLQESGAELVRSGASVKLSCTASGFNIKDYYIQWVKQRPEQGLEWIGWIDPESGNTKYAPKFQDKATMTADTSSNTAYLQLSGLTSEDSAVYYCNAYYDYDGSMDYWGQGTTVTVSS
VL: DIVMTQSPLSLPVSLGDQASISCRSSQSLVHSNGNTYLHWYLQKPGQSPKLLIYKVSNRFSGVPDRFSGSGSGTDFTLKISRVETDDLGVYFCSQSTHVPTWTFGGGTKLEIK

% to 002# OD (2 nM) [1]: 75.9%
% to 002# OD (20 nM) [1]: 96.6%
ELISA OD [3]: 1.9 OD
ELISA OD [4]: 2.27 OD
B2: TNFR2 antibody #309 (antibody, V domains shown)
VH: EVQLQESGAELVKPGASVKLSCKASGYTFTSYWIHWVKLRPGQGFEWIGEINPNNGGTDYNEKFKRKATLTVDKSSSTAYMELSSLTSEDSAIYYCTIDSMITTTWFAYWGQGTTVTVSS
VL: EIVMTQSQKLMSTVVGDRVSVTCKASQNVGTNVAWFQQKPGQSPKALINSASYRYSGVPDRFTGSGSGTDFTLTISSVQSEDLAEYFCQQYNSYPFTFGSGTKLEIK

IC50 [5]: 0.06 µg/mL
% to 002# OD (2 nM) [1]: 95.7%
% to 002# OD (20 nM) [1]: 105%
B4: TNFR2 antibody #226 (antibody, V domains shown)
VH: EVQLQESGAELVRPGASVKLSCKASGYSFTNYWMNWVKQRPGQGLEWIGMIHPSDSETRLNQKFKDKATLTVDKSSSTAYMQLSSPTSEDSAVYYCARGEGLGAARSVSMDYWGQGTTVTVSS
VL: DIQMTQSPSSLSASLGDRVTISCRASQDISNYLNWYQQKPDGTVKVLIYYTALLHSGVPSRFSGSGSGTDYSLTISNLEQEDIATYFCQQGNTLPWTFGGGTKLEIK

% to 002# OD (2 nM) [1]: 88.2%
% to 002# OD (20 nM) [1]: 106%
B8: TNFR2 antibody #352 (antibody, V domains shown)
VH: EVQLQESGPGLVAPSQSLSITCTVSGFSLTSYGVHWVRQPPGKGLEWLVVIWSDGGTTYNSALKSRLSISKDNSKSQVFLKMNSLQTDDTAMYYCARHDDDGYYAMDYWGQGTTVTVSS
VL: DIVLTQSPSLMSASPGEKVTMTCSASSSVGYMYWYQQKPRSSPKPWIYLTSNLASGVPARFSGSGSGTSYSLTISSMEVEDAATYYCQQWSSDPFTFGSGTKLEIK

% to 002# OD (2 nM) [1]: 124%
% to 002# OD (20 nM) [1]: 120%
IC50 [7]: 0.041 µg/mL
B9: TNFR2 antibody #365 (antibody, V domains shown)
VH: EVQLQESGPGLVQPSQSLSITCTVSGFSLTSYGVHWVRQSPGKGLEWLGLIWSDGSPDYSAAFISRLSINKDNSKSQVFFKMNSLQADDTAIYYCARNDDGGDYVMDYWGQGTTVTVSS
VL: EIVLTQSPALMSASPGEKVTMTCSASSSVSYMYWYQQKPRSSPKPWIYLTSNLASGVPARFSGSGSGTSYSLTISSMEAEDAATYYCQQWTSNPLTFGAGTKLEIK

% to 002# OD (2 nM) [1]: 101%
% to 002# OD (20 nM) [1]: 277%
IC50 [8]: 0.128 µg/mL
B10: TNFR2 antibody #224 (antibody, V domains shown)
VH: EVQLQESGPEIVKPGASVKLSCTASGFNNKDIYMHWVKQRPEQGLEWIGRIDPATGNTKHDPKFQDKATLSSDTSSNTAYLQFSSLTSEDTAVYYCAHSPYGDFGAMDYWGQGTTVTVSS
VL: DIQMTQSPAIMSASLGERVTMTCTASSSVSSNYLHWYQQKPGSSPKLWIYSTSNLPSGVPARFSGSGSGTSYSLTISSMEAEDAATYYCHQYHRSPWTFGGGTKLEIK

The remaining lines, values behind:

B3: TNFR2 antibody #219 (antibody, V domains shown)
VH: EVQLQESGAELVRPGASVKLSCKASGYSFTNYWMNWVKQRPGQGLEWIGMIHPSDTETRLNQNFKDKATLTVDKSSSTSYMQLSSPTSEDSAVYYCARGEGLGAARSVSMDYWGQGTTVTVSS
VL: DILMTQSPSSLSASLGDRVTISCRASQDISNYLNWYQQKPDGTVKVLIYYTAILHSGVPSRFSGSGSGTDYSLTISNLEQEDIATYFCQQGNTLPWTFGGGTKLEIK
% to 002# OD (2 nM) [1]: 89.7%
% to 002# OD (20 nM) [1]: 89%

B5: TNFR2 antibody #125 (antibody, V domains shown)
VH: EVQLQESGGGLVQPGGSLNLSCAASGFAFSIYDLSWVRQTPEKRLEWVAYINNGGISTYYSDTVKGRFTISRDNAKNTLYLQMSSLKSEDTAMYYCVRGPFYGSANYFDYWGQGTTVTVSS
VL: DIQMTQSPASLSLSVGETVTITCRASENIYSNLAWYQQKQGKSPQLLVYDATKLAEGVPSRFSGSESGTQYSLKINSLQSEDFGTYYCQHFWVTPWTFGGGTKLEIK
% to 002# OD (2 nM) [1]: 113%
% to 002# OD (20 nM) [1]: 154%

B6: TNFR2 antibody #088 (antibody, V domains shown)
VH: EVQLQESGGGLVQPGGSLNLSCAASGFAFSTYDLSWVRQTPGKRLEWVAYINNGGISTYYSDTVKGRFTITRDNAKNTLYLQMSSLKSEDTAMYYCVRGPFYGSANYFDYWGQGTTVTVSS
VL: DILMTQSPASLSLFVGETVTITCRASENIYSNLAWYQQKQGKSPQLLVYDATKLAEGVPSRFSGSESGTQYSLKINSLQSEDFGTYYCQHFWVTPWTFGGGTKLEIK
IC50 [6]: 0.185 µg/mL
% to 002# OD (2 nM) [1]: 69.3%
% to 002# OD (20 nM) [1]: 94.1%
ELISA OD [3]: 1.31 OD
ELISA OD [4]: 1.44 OD

B7: TNFR2 antibody #001 (antibody, V domains shown)
VH: EVQLQESGGGLVQPGGSLNLSCAASGFAFSTYDLSWVRQTPEKRLEWVAYINNGGISTYYSDTVKGRFTISRDNAKNTLYLQMSSLKSEDTAMYYCVRGPFYGSANYFDYWGQGTTVTVSS
VL: EIVMTQSPASLSLSVGETVTITCRTSESIYSNLPWYQQKQGKSPQLLVYDATKLAEGVPSRFSGSESGTQYSLKINSLQSEDFGTYYCQHFWVTPWTFGGGTKLEIK
notes: also called antibody #1
% to 002# OD (2 nM) [1]: 84.2%
% to 002# OD (20 nM) [1]: 126%
